[ ]: non-standard residue; d: D form. pT = C[C@@H](OP(=O)(O)O)[C@H](N)C(=O)O; pS = N[C@@H](COP(=O)(O)O)C(=O)O
Key:
[1] = molecular target: BRCA2_(190-284) phosphorylated by PLK1 (human) (UniProt P51587); test: ITC; PLK1 PBD (326-603) and BRCA2 peptides; 50 mM Tris-HCl pH 8.0, 150 mM NaCl, 5 mM β-ME, 293 K, VP-ITC, one-site binding model
[2] = molecular target: endogenous BUBR1 (human (endogenous in DLD1)) (UniProt O60566); test: co-IP; immunoprecipitation of endogenous BUBR1 with mouse anti-BUBR1 antibody from nocodazole-treated DLD1 BRCA2-/- stable clones expressing BRCA2 WT or variants; extraction buffer A, washes up to 500 mM NaCl; western blot for PP2A-C and PLK1
Chain of endogenous BUBR1 (human (endogenous in DLD1)) (O60566 whole entry): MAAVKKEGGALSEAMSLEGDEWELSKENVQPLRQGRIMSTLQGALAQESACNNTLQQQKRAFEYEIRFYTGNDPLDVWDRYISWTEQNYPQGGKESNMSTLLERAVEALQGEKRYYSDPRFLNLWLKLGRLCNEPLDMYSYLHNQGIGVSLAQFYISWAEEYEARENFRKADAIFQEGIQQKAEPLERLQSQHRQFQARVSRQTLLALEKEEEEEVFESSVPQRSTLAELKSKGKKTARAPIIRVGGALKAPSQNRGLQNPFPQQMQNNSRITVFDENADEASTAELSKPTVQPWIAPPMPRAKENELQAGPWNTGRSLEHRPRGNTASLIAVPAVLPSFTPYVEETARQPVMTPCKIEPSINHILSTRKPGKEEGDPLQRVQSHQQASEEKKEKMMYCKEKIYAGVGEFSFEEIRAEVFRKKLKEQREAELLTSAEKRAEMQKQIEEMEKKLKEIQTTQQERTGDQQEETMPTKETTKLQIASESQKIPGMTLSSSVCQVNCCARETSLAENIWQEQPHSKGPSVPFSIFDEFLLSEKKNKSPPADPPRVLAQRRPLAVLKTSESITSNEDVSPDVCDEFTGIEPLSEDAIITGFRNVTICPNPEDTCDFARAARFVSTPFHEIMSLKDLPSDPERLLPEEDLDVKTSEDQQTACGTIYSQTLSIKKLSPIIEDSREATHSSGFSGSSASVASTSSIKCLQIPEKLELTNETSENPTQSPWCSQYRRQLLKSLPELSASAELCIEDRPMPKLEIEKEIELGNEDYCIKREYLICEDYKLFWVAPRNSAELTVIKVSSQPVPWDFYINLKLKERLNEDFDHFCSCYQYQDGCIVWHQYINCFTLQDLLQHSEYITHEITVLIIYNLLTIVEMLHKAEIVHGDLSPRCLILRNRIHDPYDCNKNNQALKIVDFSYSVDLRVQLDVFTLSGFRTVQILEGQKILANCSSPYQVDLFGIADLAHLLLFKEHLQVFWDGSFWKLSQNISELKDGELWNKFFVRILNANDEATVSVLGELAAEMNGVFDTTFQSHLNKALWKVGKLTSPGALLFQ

[3] = molecular target: purified 2xMBP-BRCA2_(1-250) T207A (human) (UniProt P51587)
[4] = molecular target: T1, PLK1 Polo-box domain (amino acid 326 to amino acid 603) (UniProt P53350 326-603); test: ITC; PLK1 PBD (326-603) and BRCA2 peptides; 50 mM Tris-HCl pH 8.0, 150 mM NaCl, 5 mM β-ME, 293 K, VP-ITC, one-site binding model; details: both partners purified
T1 construct: PLK1, Polo-box domain, amino acids 326 to 603, amplified from Addgene pTK24; also called PLK1PBD; PLK1 PBD (326-603); source: E. coli Tuner pLacI pRare, purified (His-Trap, SUMO protease, Ni-NTA, Superdex)
T1 sequence (P53350 326-603): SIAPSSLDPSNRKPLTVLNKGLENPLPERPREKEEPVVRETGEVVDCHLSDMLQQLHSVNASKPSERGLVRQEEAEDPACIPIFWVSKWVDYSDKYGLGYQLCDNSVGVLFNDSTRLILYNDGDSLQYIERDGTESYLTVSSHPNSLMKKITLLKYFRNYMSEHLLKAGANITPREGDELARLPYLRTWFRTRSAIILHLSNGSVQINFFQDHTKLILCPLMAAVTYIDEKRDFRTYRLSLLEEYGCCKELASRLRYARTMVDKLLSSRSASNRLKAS

[5] = molecular target: T2, recombinant PLK1 (UniProt P53350 1-603); test: pull-down; in vitro kinase reaction (0.2 µg PLK1 or PLK1-KD, 0.5 µg 2xMBP-BRCA2_(1-250), kinase buffer with 250 µM ATP or without ATP, 30 min at 30 °C) followed by amylose beads for 1 h at 4 °C, washes with 0.5% NP-40 and 0.1% Triton X-100, elution with 10 mM maltose; western blot; details: both partners purified
T2 construct: Polo-like kinase 1 (PLK1), cDNA from Addgene pTK24 cloned into pFast-Bac HT; also called 6xHis-PLK1; PLK1-WT; source: Sf9, purified (Ni-NTA, Capto S) or bought: Abcam
T2 sequence (P53350 whole entry): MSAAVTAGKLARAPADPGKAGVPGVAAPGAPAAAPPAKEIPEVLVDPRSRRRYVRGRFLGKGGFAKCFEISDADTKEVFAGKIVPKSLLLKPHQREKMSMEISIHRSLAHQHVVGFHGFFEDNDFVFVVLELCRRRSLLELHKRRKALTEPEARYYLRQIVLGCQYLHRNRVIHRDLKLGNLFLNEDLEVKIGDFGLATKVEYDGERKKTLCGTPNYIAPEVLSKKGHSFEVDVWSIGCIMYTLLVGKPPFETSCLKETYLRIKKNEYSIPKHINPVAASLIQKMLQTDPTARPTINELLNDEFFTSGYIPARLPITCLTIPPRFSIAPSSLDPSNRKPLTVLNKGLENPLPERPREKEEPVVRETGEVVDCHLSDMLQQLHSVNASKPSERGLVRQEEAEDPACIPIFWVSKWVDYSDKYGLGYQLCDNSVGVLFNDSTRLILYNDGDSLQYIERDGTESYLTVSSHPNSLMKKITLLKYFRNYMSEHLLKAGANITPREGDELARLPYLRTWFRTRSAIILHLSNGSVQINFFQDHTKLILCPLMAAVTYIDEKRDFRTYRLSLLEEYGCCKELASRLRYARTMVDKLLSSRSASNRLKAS

Chain of BRCA2_(190-284) phosphorylated by PLK1 (human) (P51587 190-284): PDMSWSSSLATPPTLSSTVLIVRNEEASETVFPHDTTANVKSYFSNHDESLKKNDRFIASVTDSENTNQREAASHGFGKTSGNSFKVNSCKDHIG

Molecule: PLK1 Polo-box domain (amino acid 326 to amino acid 603) (from UniProt P53350 326-603) (domain or fragment)
- Kd [1]: 140 nM

Molecule: PP2A (detected by its catalytic subunit, PP2AC) (from UniProt P67775 1-309) (cell line)
- reduction of PP2A co-immunoprecipitated with BUBR1 in BRCA2-T207A cells against BRCA2 WT cells [2]: 30%

Molecule: recombinant PLK1 (from UniProt P53350 1-603) (enzyme)
- fold decrease in in vitro kinase assay: phosphorylation of 2xMBP-BRCA2 (1-250) by recombinant PLK1 (32P), T207A against WT [3]: 2 fold

B1: BRCA2 peptide containing pS197 (peptide)
chain: Ac-DMSWSS[pS]LAT-NH2
SMILES: CSCC[C@H](NC(=O)[C@H](CC(=O)O)NC(C)=O)C(=O)N[C@@H](CO)C(=O)N[C@@H](Cc1c[nH]c2ccccc12)C(=O)N[C@@H](CO)C(=O)N[C@@H](CO)C(=O)N[C@@H](COP(=O)(O)O)C(=O)N[C@@H](CC(C)C)C(=O)N[C@@H](C)C(=O)N[C@H](C(N)=O)[C@@H](C)O
- Kd [4]: 17000 ± 2000 nM

B2: BRCA2 17 aa peptide containing pT207 (194WSSSLATPPTLSS{pT}VLI210) (peptide)
peptide: Ac-WSSSLATPPTLSS[pT]VLI-NH2
SMILES: CC[C@H](C)[C@H](NC(=O)[C@H](CC(C)C)NC(=O)[C@@H](NC(=O)[C@@H](NC(=O)[C@H](CO)NC(=O)[C@H](CO)NC(=O)[C@H](CC(C)C)NC(=O)[C@@H](NC(=O)[C@@H]1CCCN1C(=O)[C@@H]1CCCN1C(=O)[C@@H](NC(=O)[C@H](C)NC(=O)[C@H](CC(C)C)NC(=O)[C@H](CO)NC(=O)[C@H](CO)NC(=O)[C@H](CO)NC(=O)[C@H](Cc1c[nH]c2ccccc12)NC(C)=O)[C@@H](C)O)[C@@H](C)O)[C@@H](C)OP(=O)(O)O)C(C)C)C(N)=O
notes: BRCA2, human, residues 194-210, T207 phosphorylated; Used for ITC and for the crystal; also called pT207 peptide; T207 phosphorylated peptide; source: synthetic peptide
- Kd [4]: 90 ± 10 nM

B3: purified 2xMBP-BRCA2_(1-250) WT (domain or fragment, human, UniProt P51587 1-250, looked up)
chain: MPIGSKERPTFFEIFKTRCNKADLGPISLNWFEELSSEAPPYNSEPAEESEHKNNNYEPNLFKTPQRKPSYNQLASTPIIFKEQGLTLPLYQSPVKELDKFKLDLGRNVPNSRHKSLRTVKTKMDQADDVSCPLLNSCLSESPVVLQCTHVTPQRDKSVVCGSLFHTPKFVKGRQTPKHISESLGAEVDPDMSWSSSLATPPTLSSTVLIVRNEEASETVFPHDTTANVKSYFSNHDESLKKNDRFIASV
notes: BRCA2, human, amino acids 1 to 250; also called PLK1-phosphorylated BRCA2_(1-250); source: HEK293T, transfected, purified (amylose resin, Bio-Rex 70)
- binding result [5]: binds
